Where two headings read alike, the source gives them in different places. No end group written: not given here.
Columns and labels:
[1] = biological target: T1, MBP (Escherichia coli, UniProt P0AEX9); test: Surface Plasmon Resonance, immobilized MBP, peptides as analytes; format: binding; details: for SPR signal variations in the explored concentration range: dose response assay
T1 construct: made in house; host or cells: E. coli BL21(DE3)
Procedure: The interactions between the protein and computationally optimized peptides were measured using the BIAcore 3000 (GE Healthcare Milano, Italy). […] Residual reactive groups were deactivated by treatment with 1 M ethanolamine hydrochloride, pH 8.5. The reference channel was activated with EDC/NHS and deactivated with ethanolamine. The binding assays were carried out at 20 μL /min at 25°C, with 4.5 min contact-time. Peptides were diluted in the HBS running buffer (10 mM Hepes, 150 mM NaCl, 3 mM EDTA, pH 7.4). Analyte injections were performed at the indicated concentrations. The sensor surface was regenerated by using 1–3 washes of 10mM NaOH for 1 minute. The association phase (kon) was followed for 250s, whereas the dissociation phase (koff) was followed for 300 s. The instrument BIAevaluation analysis package (version 4.1, GE Healthcare, Milano, Italy) was used to subtract the signal of the reference channel. Conversely, an affinity steady state model was applied to fit the RUmax data versus peptides concentrations and fitting was performed with GraphPad Prism v4.00 using the one-site binding equation [53, 54].

[2] = test system: OPPA; details: KAK+OPPA; cited from earlier work
[3] = biological target: T1, MBP; details: cited from earlier work
[4] = immobilized MBP on CM5 chip, 25°C, HBS pH 7.4

Row | Substance | KD (SPR determined) [1, 4] | other results
1 | GLPKPGGN [MBP-5, computationally designed octapeptide] | CBE | –
2 | KAK | – | experimentally determined binding energy [2]: -9.8 kcal/mol
3 | PQYPPHDN [MBP-4, computationally designed octapeptide] | CBE | –
4 | WGTNGGTR [MBP-2, computationally designed octapeptide] | CBE | –
5 | WHPRPVWE-NH2 [MBP-8] | – | Kd ([1]; immobilized MBP on CM5 chip, 25°C, HBS pH 7.4, read-out: KD (SPR determined)): 200 ± 5 µM
6 | WSPNFWWR [MBP-7, computationally designed octapeptide] | CBE | –
7 | YGDGYFRF [MBP-10, peptide along the minimization path of MBP-9] | No binding | SPR signal variations in the explored concentration range [1]: did not give valuable signal variations
8 | YHDGYFRF [MBP-11, peptide along the minimization path of MBP-9] | No binding | SPR signal variations in the explored concentration range [1]: did not give valuable signal variations
9 | maltotriose | – | experimental binding energy ([3]; compared with the closed configuration score): -9.3 kcal/mol; experimental binding energy ([3]; compared with the open configuration score): -8.4 kcal/mol
